From the supplement of paper PMC10567573
± gives the standard deviation.

Experiment: protein stability index of a GFP-peptide fusion (GPS, HEK-293T) (PSI 1-6); higher = more stable
Settings: c terminus: a fixed tail appended
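Further: 24-mer peptide tiles fused after GFP, lentivirally expressed, FACS-sorted into six equal bins by GFP/DsRed ratio, decoded by Illumina sequencing, PSI is the read-weighted mean bin number.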

Sequence	protein stability index (treatment: DMSO)	protein stability index (treatment: MLN4924 1 uM, 8 h)
GVEEIKGHPFFEGVDWEHIRERPA [STK38L]	3.97 ± 0.8	4.32 ± 0.37
HWNGRHKPWDFPSVHNDLWESWFV [GLT8D2]	2.28 ± 0.58	2.54 ± 0.52
HQPPQAGAGDVVLLQRELAQEDSL [LYSMD4]	5.09 ± 0.13	5.04 ± 0.15
KGEYEVAEGIGSTVFRAILDYYKT [BTBD10]	2.43 ± 0.4	2.35 ± 0.41
RNGGKYCEGRRTRFRSCNTEDCPT [ADAMTS4]	4.15 ± 0.34	4.09 ± 0.32
GGMQALGLHLTDPSQRLVQNCLWT [CTNNB1]	2.11 ± 0.13	2.1 ± 0.44
ESDSQGQGNGLFYSSGPQSWYPKA [ZC2HC1C]	3.62 ± 0.32	3.72 ± 0.34
GLDPEPLPLMDLCRRSIRSALGRQ [SPSB4]	3.79 ± 0.23	3.75 ± 0.18
PPRQALGSLCSPWAAPRVGPLPPA [YPEL3]	3.16 ± 0.51	3.2 ± 0.44
TADHRIYSYVVSRPQPRGLLGWGY [FAF2]	2.16 ± 0.37	2.21 ± 0.22
DWVVVKEPVIKVAAIDNGLAFPLK [PI4K2A]	2.52 ± 0.43	2.94 ± 0.29
SELSESAFGYFITACAVIILTIIC [SLC29A1]	2.03 ± 0.21	2.12 ± 0.39
ATSVTVPGAGVPSGSGGTVAPATM [ZBTB22]	4.7 ± 0.38	4.64 ± 0.43
AREELMESRMRIESLSSQLSNLQK [LMNB1]	3.95 ± 0.18	4.07 ± 0.19
IVVHCSAGIGRTGTFCSLDICLAQ [PTPN9]	3.85 ± 1	3.45 ± 0.19
CHPDDQFTTSILRHWCMKHDELLA [INTS3]	3.03 ± 0.28	3.06 ± 0.41
RNALENIRKEMKLLEQAGSLKGSL [CRYL1]	3.32 ± 0.64	3.62 ± 0.32
DKWVNDPHRMDRRLLALIYLAHAS [GOLPH3]	2.63 ± 0.91	2.1 ± 0.31
SPMYFFLASLSFIDTVYSTAFAPK [OR4A15]	3.01 ± 0.35	2.92 ± 0.54
TKLSLLAIHGYTVWAHNLIAIARL [FBXO33]	3.19 ± 0.36	3.22 ± 0.23
AKVPRPPSTLLPTPEEQGELEPLK [FOXJ1]	5.19 ± 0.23	5.3 ± 0.18
WIEQLNECKQLSESQVKSLCEKAK [PPP2CA]	3.85 ± 0.18	3.87 ± 0.1

Sequence	protein stability index (treatment: DMSO)	protein stability index (treatment: MLN4924 1 uM, 8 h)
IFCLHGGLSPSIDTLDHIRALDRL [PPP2CA]	2.29 ± 0.59	2.21 ± 0.17
DHPGIHEPLEPEVKYVGNMHGNEA [CPN1]	4.98 ± 0.56	5.08 ± 0.19
SDSGKDLPEPSKRGPPHGWPKLCP [MYCL]	4.27 ± 0.1	4.63 ± 0.078
KNLYTNEYVAIKLEPMKSRAPQLH [CSNK1G3]	2.55 ± 0.28	2.5 ± 0.13
GTMGMAPLGNTPMMNQSMMGMNMN [CLINT1]	3.39 ± 0.45	3.52 ± 0.21
KLLHIYYQNSIDDRLLVERIFAQY [PDS5B]	2.68 ± 0.63	3.39 ± 0.59
HKRPHVDFFLEVVSQWYELVVFTA [CTDNEP1]	3.06 ± 0.76	2.77 ± 1.2
VLQIDNARLAADDFRVKYETELAM [KRT18]	3.04 ± 0.12	3.3 ± 0.33
SPLEEKHDQCKCENLIMFQNLANE [MATN2]	4.365 ± 0.004	4.05 ± 0.69
YYSPILDQWTPIAAMLRGQSDVGV [KLHL13]	2.4 ± 0.3	2.26 ± 0.3
AQKQRLERALDATEVPFSITTDNL [TEKT4]	4.72 ± 0.29	4.77 ± 0.22
NVLVDPSARIGQNCSIGPNVSLGP [GMPPB]	3.61 ± 0.088	3.43 ± 0.25
ATYRRLLEGEDAHLSSQQASGQSY [KRT16]	4.46 ± 0.22	4.4 ± 0.29
DRGSCVSTTEGIQLAKELGATYLE [RHOBTB3]	4.45 ± 0.14	4.47 ± 0.24
KKAEKKLEENPYDLDAWSILIREA [CSTF3]	3.19 ± 0.36	3.26 ± 0.41
NQKSDIWALGCVLYELASLKRAFE [NEK8]	2.38 ± 0.72	2.41 ± 0.34
ERQLKVMASDHREALLDRESENAS [LRRC45]	5.41 ± 0.3	5.33 ± 0.18
AAQEGHLELVKYLLAAGANVHATT [ANKRD17]	2.34 ± 0.3	2.74 ± 0.35
AQLSELRCEMEAQNQEYKMLLDIK [KRT15]	3.65 ± 0.33	3.65 ± 0.38
ATQQARKRNFISSKSKQPAGHRRP [C22orf31]	4.58 ± 0.27	4.71 ± 0.31
QLVLVAAGFDALQGDPKGEMAATP [HDAC6]	2.75 ± 0.057	2.8 ± 0.43
LSLIGVRVDVDTYLTSQLPPLREI [NFE2L1]	3.12 ± 1.1	2.57 ± 0.58
